# Test results reported in article PMC6087429 (Structure(London, England:1993), 2018).
# B1: MOB1A (amino acids 2-216), recombinant (natural protein, human, UniProt Q9H8S9 2-216, looked up)
# chain: SFLFSSRSSKTFKPKKNIPEGSHQYELLKHAEATLGSGNLRQAVMLPEGEDLNEWIAVNTVDFFNQINMLYGTITEFCTEASCPVMSAGPRYEYHWADGTNIKKPIKCSAPKYIDYLMTWVQDQLDDETLFPSKIGVPFPKNFMSVAKTILKRLFRVYAHIYHQHFDSVMQLQEEAHLNTSFKHFIFFVQEFNLIDRRELAPLQELIEKLGSKDR
# Biological target: NDR1 MBD and kinase domain (NDR1^MBD-KD, residues 12-418), wild type (human, UniProt Q15208 12-418)
# Sequence (Q15208 12-418): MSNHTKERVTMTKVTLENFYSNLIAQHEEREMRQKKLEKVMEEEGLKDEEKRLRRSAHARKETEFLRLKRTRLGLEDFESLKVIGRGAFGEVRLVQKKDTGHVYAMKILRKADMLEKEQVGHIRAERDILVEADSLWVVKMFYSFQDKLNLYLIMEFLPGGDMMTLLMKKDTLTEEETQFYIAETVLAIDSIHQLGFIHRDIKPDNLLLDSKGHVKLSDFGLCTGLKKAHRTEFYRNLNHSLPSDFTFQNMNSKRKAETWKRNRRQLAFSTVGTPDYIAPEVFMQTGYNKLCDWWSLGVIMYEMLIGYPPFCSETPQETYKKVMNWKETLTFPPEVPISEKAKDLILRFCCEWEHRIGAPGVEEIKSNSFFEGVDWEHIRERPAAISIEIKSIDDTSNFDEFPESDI
# Assay: HDX-MS
binder,measurement,value
B1,binding result,binds
